Experimental data published in paper doi:10.1101/116178.

Molecular target: RFP-p62 (UniProt Q13501)
Assay: co-IP

fold binding against cleavable mHTT: 2 fold
Substance: mHTT aa1-1212 138Q-C6R (domain or fragment)
